Like-named read-outs stand apart in the source and are kept apart here.
B1: GST–Sed5N (NH2-terminal domain) (domain or fragment)
chain: MNIKDRTSEFQQSVLSYKKRNKNFREQQRERLQEKESENFANNTTGNGKSVSEFQKKASGIAHEISSTAQLLSKLAVLAKRKPMFNDNPVEIAELSFLIKRKIYAIEQSLVQLSQLKKTDVNGNTSNQSSKQPSAVQHSKNVVNLLNTQMKNISGSFKDVLEERQRLEMANKDRWQKLTTDTGHAPADDQTQSNHAADLTTYNNSNPFMTSLLDESSEKNNNSSNQGELSFPQNDSQLMLMEEGQLSNNV
B2: His10-Sly1p (NH2-terminally His10-tagged full-length Sly1p) (natural protein)
chain: MAVEEIASRKDISLRDMQISAILKMLFLNKDLNNNDNITTITDDIFNQQEIIWKVLILDIKSTATISSVLRVNDLLKAGITVHSLIKQDRSPLPDVPAIYFVSPTKENIDIIVNDLKSDKYSEFYINFTSSLPRNLLEDLAQQVSITGKSDKIKQVYDQYLDFIVTEPELFSLEISNAYLTLNDPKTTEEEITGLCANIADGLFNTVLTINSIPIIRAAKGGPAEIIAEKLGTKLRDFVINTNSSSTSTLQGNDSLERGVLIILDRNIDFASMFSHSWIYQCMVFDIFKLSRNTVTIPLESKENGTDNTTAKPLATKKYDIEPNDFFWMENSHLPFPEAAENVEAALNTYKEEAAEITRKTGVTNISDLDPNSNNDTVQIQEVVKKLPELTAKKNTIDTHMNIFAALLSQLESKSLDTFFEVEQDPGSTKTRSRFLDILKDGKTNNLEDKLRSFIVLYLTSTTGLPKDFVQNVENYFKENDYDINALKYVYKLREFMQLSNMSLQNKSLEDGSDSAFKPSNLTLSGIYGLTEGKLQGGVGSLISGIKKLLPEKKTIPITNVVDAIMDPLNSSQKNLETTDSYLYIDPKITRGSHTRKPKRQSYNKSLVFVVGGGNYLEYQNLQEWAHSQLHNPKKVMYGSTAITTPAEFLNEISRLGASNSSNNDA
B3: preformed Sed5p–Sly1p heterodimer in solution (His-Sly1p–His-Sed5p) (complex)
chain 1: MAVEEIASRKDISLRDMQISAILKMLFLNKDLNNNDNITTITDDIFNQQEIIWKVLILDIKSTATISSVLRVNDLLKAGITVHSLIKQDRSPLPDVPAIYFVSPTKENIDIIVNDLKSDKYSEFYINFTSSLPRNLLEDLAQQVSITGKSDKIKQVYDQYLDFIVTEPELFSLEISNAYLTLNDPKTTEEEITGLCANIADGLFNTVLTINSIPIIRAAKGGPAEIIAEKLGTKLRDFVINTNSSSTSTLQGNDSLERGVLIILDRNIDFASMFSHSWIYQCMVFDIFKLSRNTVTIPLESKENGTDNTTAKPLATKKYDIEPNDFFWMENSHLPFPEAAENVEAALNTYKEEAAEITRKTGVTNISDLDPNSNNDTVQIQEVVKKLPELTAKKNTIDTHMNIFAALLSQLESKSLDTFFEVEQDPGSTKTRSRFLDILKDGKTNNLEDKLRSFIVLYLTSTTGLPKDFVQNVENYFKENDYDINALKYVYKLREFMQLSNMSLQNKSLEDGSDSAFKPSNLTLSGIYGLTEGKLQGGVGSLISGIKKLLPEKKTIPITNVVDAIMDPLNSSQKNLETTDSYLYIDPKITRGSHTRKPKRQSYNKSLVFVVGGGNYLEYQNLQEWAHSQLHNPKKVMYGSTAITTPAEFLNEISRLGASNSSNNDA
chain 2: MNIKDRTSEFQQSVLSYKKRNKNFREQQRERLQEKESENFANNTTGNGKSVSEFQKKASGIAHEISSTAQLLSKLAVLAKRKPMFNDNPVEIAELSFLIKRKIYAIEQSLVQLSQLKKTDVNGNTSNQSSKQPSAVQHSKNVVNLLNTQMKNISGSFKDVLEERQRLEMANKDRWQKLTTDTGHAPADDQTQSNHAADLTTYNNSNPFMTSLLDESSEKNNNSSNQGELSFPQNDSQLMLMEEGQLSNNVYLQERNRAVETIESTIQEVGNLFQQLASMVQEQGEVIQRIDANVDDIDLNISGAQRELLKYFDRIKSNRWLAAK
B4: His6-Sed5p (NH2-terminally His6-tagged Sed5p lacking the COOH-terminal membrane anchor) (domain or fragment)
chain: MNIKDRTSEFQQSVLSYKKRNKNFREQQRERLQEKESENFANNTTGNGKSVSEFQKKASGIAHEISSTAQLLSKLAVLAKRKPMFNDNPVEIAELSFLIKRKIYAIEQSLVQLSQLKKTDVNGNTSNQSSKQPSAVQHSKNVVNLLNTQMKNISGSFKDVLEERQRLEMANKDRWQKLTTDTGHAPADDQTQSNHAADLTTYNNSNPFMTSLLDESSEKNNNSSNQGELSFPQNDSQLMLMEEGQLSNNVYLQERNRAVETIESTIQEVGNLFQQLASMVQEQGEVIQRIDANVDDIDLNISGAQRELLKYFDRIKSNRWLAAK

Legend:
Experiment in all cases: pull-down
[1] = target: T1, Sly1p cleaved from purified GST–Sly1p (untagged soluble Sly1p) (S. cerevisiae, UniProt P22213 1-666)
T1 sequence: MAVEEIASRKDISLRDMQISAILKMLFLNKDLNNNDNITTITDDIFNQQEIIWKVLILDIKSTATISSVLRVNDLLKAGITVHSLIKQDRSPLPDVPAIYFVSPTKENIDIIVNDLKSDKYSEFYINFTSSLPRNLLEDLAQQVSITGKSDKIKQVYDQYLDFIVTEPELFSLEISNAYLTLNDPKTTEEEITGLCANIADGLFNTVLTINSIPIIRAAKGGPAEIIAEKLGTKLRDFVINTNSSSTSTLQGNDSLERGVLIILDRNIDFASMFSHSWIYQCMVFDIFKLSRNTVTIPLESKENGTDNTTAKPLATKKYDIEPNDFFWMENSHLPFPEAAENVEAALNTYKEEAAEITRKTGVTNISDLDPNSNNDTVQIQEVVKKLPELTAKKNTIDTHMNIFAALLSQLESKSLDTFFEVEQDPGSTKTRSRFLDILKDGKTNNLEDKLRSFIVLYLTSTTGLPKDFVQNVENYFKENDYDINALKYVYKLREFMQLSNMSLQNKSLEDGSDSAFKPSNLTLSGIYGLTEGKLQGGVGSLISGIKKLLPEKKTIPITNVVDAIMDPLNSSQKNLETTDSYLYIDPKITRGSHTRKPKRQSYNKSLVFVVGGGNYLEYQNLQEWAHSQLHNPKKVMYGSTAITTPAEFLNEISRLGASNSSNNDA

[2] = target: T2, preassembled SNARE complex of GST–Sec22p, Sed5p, Bos1p and Bet1p (yeast, UniProt P22214;Q01590;P25385;P22804)
T2 sequence 1: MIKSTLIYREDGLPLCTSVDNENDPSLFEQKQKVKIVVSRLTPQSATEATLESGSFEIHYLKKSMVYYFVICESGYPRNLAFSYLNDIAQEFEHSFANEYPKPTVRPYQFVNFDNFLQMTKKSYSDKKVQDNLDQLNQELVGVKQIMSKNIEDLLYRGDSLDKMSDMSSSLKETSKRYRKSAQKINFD
T2 sequence 2: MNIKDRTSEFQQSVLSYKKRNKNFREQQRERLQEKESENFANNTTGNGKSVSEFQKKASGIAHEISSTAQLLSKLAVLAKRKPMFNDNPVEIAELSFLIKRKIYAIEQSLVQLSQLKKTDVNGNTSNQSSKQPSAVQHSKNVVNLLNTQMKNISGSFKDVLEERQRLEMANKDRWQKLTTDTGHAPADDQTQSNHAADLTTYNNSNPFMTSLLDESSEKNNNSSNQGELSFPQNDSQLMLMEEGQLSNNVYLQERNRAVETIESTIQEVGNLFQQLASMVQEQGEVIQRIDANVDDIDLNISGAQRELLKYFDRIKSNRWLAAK
T2 sequence 3: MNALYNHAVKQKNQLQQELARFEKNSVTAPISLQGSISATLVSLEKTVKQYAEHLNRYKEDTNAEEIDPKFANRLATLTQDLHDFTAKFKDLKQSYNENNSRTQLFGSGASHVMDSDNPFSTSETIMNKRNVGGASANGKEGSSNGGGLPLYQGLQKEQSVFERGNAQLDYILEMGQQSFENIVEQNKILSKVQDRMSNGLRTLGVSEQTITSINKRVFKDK
T2 sequence 4: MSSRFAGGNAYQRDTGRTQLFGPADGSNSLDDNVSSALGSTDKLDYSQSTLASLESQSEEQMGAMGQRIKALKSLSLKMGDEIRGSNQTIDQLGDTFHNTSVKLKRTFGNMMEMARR

[3] = target: T3, GST–Sed5p (entire cytosolic region) (S. cerevisiae, UniProt Q01590 1-324)
T3 sequence: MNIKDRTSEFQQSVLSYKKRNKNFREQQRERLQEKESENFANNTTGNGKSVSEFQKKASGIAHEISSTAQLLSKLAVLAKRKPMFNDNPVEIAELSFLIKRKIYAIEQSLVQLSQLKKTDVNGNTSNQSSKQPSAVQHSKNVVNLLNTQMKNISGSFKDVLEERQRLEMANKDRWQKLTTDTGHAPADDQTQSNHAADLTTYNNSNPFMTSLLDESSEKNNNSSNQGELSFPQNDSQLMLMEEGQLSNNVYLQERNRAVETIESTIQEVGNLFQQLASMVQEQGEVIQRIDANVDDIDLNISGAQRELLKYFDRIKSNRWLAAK

GST–Sec22p [4] = target: T4, GST–Sec22p (yeast, UniProt P22214)
T4 sequence: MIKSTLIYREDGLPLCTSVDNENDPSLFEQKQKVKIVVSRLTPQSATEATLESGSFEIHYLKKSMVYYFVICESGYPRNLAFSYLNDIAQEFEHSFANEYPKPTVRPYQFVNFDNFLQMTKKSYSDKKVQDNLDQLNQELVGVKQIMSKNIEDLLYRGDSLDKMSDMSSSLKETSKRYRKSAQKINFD

GST–Sec22p [5] = target: T4, GST–Sec22p; remark: listed apart in the source
GST–Sec22p [6] = target: T4, GST–Sec22p; remark: listed apart in the source
GST–Sec22p [7] = target: T4, GST–Sec22p; remark: listed apart in the source

Binder	binding result [1]	stoichiometry of Sly1p–Sed5p–Bos1p–Sec22p–Bet1p in the isolated complex [2]	stoichiometry N [3]	stoichiometry N (GST–Sec22p [4])	stoichiometry N (GST–Sec22p [5])	stoichiometry N (GST–Sec22p [6])	stoichiometry of Sly1p–Sed5p–Bos1p–Sec22p–Bet1p in the isolated complex (GST–Sec22p [7])
B1	binds						
B2		1 molar ratio (GST–Sec22p = 1.4)	1.2 per Sed5p				
B3				0.44 Sed5p per Sec22p	0.99 Sed5p per Sec22p	0.3 Sed5p per Sec22p	
B4				0.5 Sed5p per Sec22p	1.1 Sed5p per Sec22p	0.3 Sed5p per Sec22p	1.2 molar ratio (GST–Sec22p = 1.4)

— PMC2173853 (The Journal of Cell Biology, 2002)
